What is called EC50 is the concentration at which the effect is half-maximal.

Consider one molecule from patent US20250215080A1 (published 2025).

The target in test [1] is T1, hTREM2 ECD (19-174)-His (human, UniProt Q9NZC2 19-174).
T1 sequence: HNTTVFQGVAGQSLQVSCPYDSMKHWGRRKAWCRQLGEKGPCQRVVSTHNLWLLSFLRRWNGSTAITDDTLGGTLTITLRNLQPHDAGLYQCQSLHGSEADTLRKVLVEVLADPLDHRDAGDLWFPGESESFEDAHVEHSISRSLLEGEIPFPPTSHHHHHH
The experiment in a line: SPR Biacore. Background: Surface plasmon resonance follows binding to a sensor surface in real time, without labels.

In test [2] the target is T2, cyTREM2 ECD (19-174)-APP-Avi (cynomolgus, UniProt A0A2K5UY34 49-204).
T2 construct: range 19-174
T2 sequence: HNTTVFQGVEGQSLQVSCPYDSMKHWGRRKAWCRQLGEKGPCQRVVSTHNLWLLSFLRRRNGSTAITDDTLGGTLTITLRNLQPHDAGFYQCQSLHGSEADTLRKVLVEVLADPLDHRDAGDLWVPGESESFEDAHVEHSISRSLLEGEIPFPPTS
Briefly: SPR Biacore.

In test [3] the target is T3, mTREM2 ECD (19-168)-His (mouse, UniProt Q99NH8 19-168).
T3 construct: range 19-168
T3 sequence (looked up): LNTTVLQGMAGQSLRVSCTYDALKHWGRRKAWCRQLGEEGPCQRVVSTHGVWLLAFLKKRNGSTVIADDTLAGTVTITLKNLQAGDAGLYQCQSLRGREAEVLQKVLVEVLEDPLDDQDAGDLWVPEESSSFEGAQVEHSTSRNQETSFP
The experiment in a line: SPR Biacore.

Test [4] deals with T4, hTREM2 ECD (19-174)-hFc (human, UniProt Q9NZC2 19-174, biotinylated in the -bio form).
T4 construct: Plain and biotinylated forms are kept as one molecule; also called hTREM2 ECD (19-174)-hFc-bio; hTREM2 Fc
T4 sequence: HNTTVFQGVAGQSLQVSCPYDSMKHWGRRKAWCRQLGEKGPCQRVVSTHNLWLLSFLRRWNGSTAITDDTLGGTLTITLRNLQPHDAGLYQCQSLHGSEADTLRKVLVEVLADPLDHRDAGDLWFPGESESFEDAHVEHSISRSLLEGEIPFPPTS
The experiment in a line: direct ELISA. As to the method:
Antigens were immobilized on microtiter plates (see Table 8). Plates were blocked and incubated with antibodies such as Fab containing crude E. coli lysates or purified Fab or IgG samples. Bound antibodies were detected using respective alkaline-phosphatase (AP) coupled secondary antibodies in combination with ‘AttoPhos’ fluorescence substrate. Multiple washing steps were performed between individual assay steps.
(In general: An ELISA detects its analyte on a solid surface through an enzyme-linked reagent.)

In test [5] the target is T5, human TREM2 (hTREM2), expressed on cells (human, UniProt Q9NZC2 19-230).
T5 construct: Signal peptide 1-18 as stated left out; On CHO cells co-expressed with hDAP12; on hM2A macrophages endogenous; also called WT-TREM2; CHO-hDAP12-hTREM2
T5 sequence: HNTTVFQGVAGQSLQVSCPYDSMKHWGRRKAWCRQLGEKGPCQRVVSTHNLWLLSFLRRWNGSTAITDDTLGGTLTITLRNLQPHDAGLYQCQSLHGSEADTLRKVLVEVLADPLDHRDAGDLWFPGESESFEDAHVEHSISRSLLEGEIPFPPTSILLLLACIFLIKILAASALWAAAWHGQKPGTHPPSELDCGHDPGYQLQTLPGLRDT
Briefly: FACS, hM2A macrophages. A general note: Flow cytometry measures light scatter and fluorescence of single cells or particles in a stream.

Test [6] addresses T5, human TREM2 (hTREM2), expressed on cells. Briefly: FACS, CHO-DAP12-hTREM2 cells.
For test [7] the target is unchanged. Briefly: FACS, CHO-hDAP12-hTREM2 cells.

B1: MOR042596 (full IgG) (antibody, V domains shown)
VH: QVQLVQSGAEVKKPGASVKVSCKASGYTFTGYHMSWVRQAPGQGLEWMGVINPVSGNTVYAQKFQGRVTMTRDTSISTAYMELSRLRSEDTAVYYCARIPSYTYAFDYWGQGTLVTVSS
VL: DIQMTQSPSSLSASVGDRVTITCRASQDISNYLAWYQQKPGKAPKLLIYRASSLQSGVPSRFSGSGSGTDFTLTISSLQPEDFATYYCQQHGHSPTTFGQGTKVEIKR
notes: Parental antibody of MOR044698; VH1B k1
B1: the Kd in test [1] is 12 nM; in test [2], 6.6 nM; in test [3], 0.9 nM. The EC50 in test [4] came out at 2.4 nM; in test [5], 37 nM; in test [6], 3.4 nM; in test [7], 3.4 nM.
